Measurements reported in publication PMC6765112, “Specificity of MYB interactions relies on motifs in ordered and disordered contexts” (Nucleic Acids Research, 2019).
Ends that are not written are not given here.

Experiments:
[1] = system: MYC4; test: Split-ubiquitin assay, MYC4 as bait; format: cell-based, Arabidopsis thaliana; conditions: yeast, SD-AHLW growth
Experimental: (§1) The rapamycin-compatible yeast strain NMY51 TOR1-1 Δfpr1 ([35]) was transformed according to DUALhunter™ kit instructions (Dualsystems biotech). Briefly, overnight 2×YPAD cultures were diluted to OD600 = 0.2, and incubated at 30°C, 150 RPM for 4–6 h in 2×YPAD, before harvesting the cells by centrifugation at 700 g for 5 min. The cells were washed with H2O, then 0.1 M LiOAc, before resuspending in 0.1 M LiOAc with 15% glycerol. The competent cells were then aliquoted and stored at −80°C until transformation. For double transformation with bait and prey plasmids, competent cells were thawed on ice, and mixed with transformation mix (240 μl 50% PEG-3350, 35 μl 1 M LiOAc and 25 μl 2 mg/ml ssDNA per transformation) and 200 ng of each plasmid, before being exposed to a 42°C heat shock in a water bath for 45 min. The cells were then chilled on ice for a few minutes, sedimented by centrifugation (3000 g, 1 min), resuspended in sterile H2O, plated on SD-LW plates and grown at 30°C for 2–3 days.
(§2) For drop tests, cells from three individual colonies of each bait/prey combination were grown overnight in liquid SD-LW media. Next day, culture densities were normalized to OD600 = 0.05, dilution series (OD600 = 0.05, OD600 = 0.005, OD600 = 0.0005 and OD600 = 0.00005) were spotted on square plates (SD-LW, SD-AHLW and SD-AHLW+Rapa) and grown for 2 days at 30°C before taking pictures.
(§3) To identify interaction sites mediating specific MYB–MYC complex formation, we selected two TFs from each family. These were MYB28 and MYB29 from MYB subgroup 12, and two of their partner bHLH TFs, MYC3 and MYC4. To define the region mediating the interactions we applied a chemically inducible dimerization split-ubiquitin system ([35]). […] This is used as an in-built positive control for correct expression and functionality of the prey fusion protein and thereby reduces the incidence of false negatives.

[2] = system: MYC3; test: Split-ubiquitin assay, MYC3 as bait; format: cell-based, Arabidopsis thaliana; conditions: yeast, SD-AHLW growth
Experimental: as §1, §2, §3

Molecule | interaction with MYC4 (in words) [1] | interaction with MYC3 (in words) [2]
MYB29 (S175-L222): 47-residue fragment of MYB29 (S175-L222) (SKKRCFKRSSSTSKLLNKVAARASSMGTILGASIEGTLISSTPLSSCL; not fully specified; cysteine pairing not given here) | sufficient for the interaction | –
MYB32: MYB TF from subgroup 4 | did not | did not
MYB29 DBD (residues M1-H126): DBD of MYB29 (residues M1-H126) (protein, left off: NubG and FRB (from the vector pFRB), end not stated, kept) MSRKPCCVGEGLKKGAWTAEEDKKLISYIHEHGEGGWRDIPQKAGLKRCGKSCRLRWANYLKPDIKRGEFSYEEEQIIIMLHASRGNKWSVIARHLPKRTDNEIKNYWNTHLKKLLIDKGIDPVTH | neither sufficient, nor necessary for the interaction | –
MYB29 non-MYB region (G120-I336): non-MYB region of MYB29 (G120-I336) (protein, left off: NubG and FRB (from the vector pFRB), end not stated, kept) GIDPVTHKPLAYDSNPDEQSQSGSISPKSLPPSSSKNVPEITSSDETPKYDASLSSKKRCFKRSSSTSKLLNKVAARASSMGTILGASIEGTLISSTPLSSCLNDDFSETSQFQMEEFDPFYQSSEHIIDHMKEDISINNSEYDFSQFLEQFSNNEGEEADNTGGGYNQDLLMSDVSSTSVDEDEMMQNITGWSNYLLDHSDFNYDTSQDYDDKNFI | mediated by the non-MYB region | –
MYB29 mut: MYB29 with mutations to abolish the MIM: L190K, K192N and A194Y (protein, left off: NubG and FRB (from the vector pFRB), end not stated, kept, MYB29 with mutations to abolish the MIM: L190K, K192N and A194Y) MSRKPCCVGEGLKKGAWTAEEDKKLISYIHEHGEGGWRDIPQKAGLKRCGKSCRLRWANYLKPDIKRGEFSYEEEQIIIMLHASRGNKWSVIARHLPKRTDNEIKNYWNTHLKKLLIDKGIDPVTHKPLAYDSNPDEQSQSGSISPKSLPPSSSKNVPEITSSDETPKYDASLSSKKRCFKRSSSTSKLKNNVYARASSMGTILGASIEGTLISSTPLSSCLNDDFSETSQFQMEEFDPFYQSSEHIIDHMKEDISINNSEYDFSQFLEQFSNNEGEEADNTGGGYNQDLLMSDVSSTSVDEDEMMQNITGWSNYLLDHSDFNYDTSQDYDDKNFI | abolished interaction with MYC3 and MYC4 | abolished interaction with MYC3 and MYC4
MYB47: R2R3 MYB TF containing 165LLNKLA170 (protein, left off: NubG and FRB (from the vector pFRB), end not stated, kept, R2R3 MYB TF containing 165LLNKLA170) MGRTTWFDVDGMKKGEWTAEEDQKLGAYINEHGVCDWRSLPKRAGLQRCGKSCRLRWLNYLKPGIRRGKFTPQEEEEIIQLHAVLGNRWAAMAKKMQNRTDNDIKNHWNSCLKKRLSRKGIDPMTHEPIIKHLTVNTTNADCGNSSTTTSPSTTESSPSSGSSRLLNKLAAGISSRQHSLDRIKYILSNSIIESSDQAKEEEEKEEEEEERDSMMGQKIDGSEGEDIQIWGEEEVRRLMEIDAMDMYEMTSYDAVMYESSHILDHLF | we could confirm those interactions | we could confirm those interactions
MYB21: MYB TF from subgroup 19 (protein, left off: NubG and FRB (from the vector pFRB), end not stated, kept) MEKRGGGSSGGSGSSAEAEVRKGPWTMEEDLILINYIANHGDGVWNSLAKSAGLKRTGKSCRLRWLNYLRPDVRRGNITPEEQLIIMELHAKWGNRWSKIAKHLPGRTDNEIKNFWRTRIQKYIKQSDVTTTSSVGSHHSSEINDQAASTSSHNVFCTQDQAMETYSPTPTSYQHTNMEFNYGNYSAAAVTATVDYPVPMTVDDQTGENYWGMDDIWSSMHLLNGN | not able to reproduce the interaction | not able to reproduce the interaction
MYB51: MYB TF from subgroup 12, containing a MIM (protein, left off: NubG and FRB (from the vector pFRB), end not stated, kept, MYB TF from subgroup 12, containing a MIM) MVRTPCCKAELGLKKGAWTPEEDQKLLSYLNRHGEGGWRTLPEKAGLKRCGKSCRLRWANYLRPDIKRGEFTEDEERSIISLHALHGNKWSAIARGLPGRTDNEIKNYWNTHIKKRLIKKGIDPVTHKGITSGTDKSENLPEKQNVNLTTSDHDLDNDKAKKNNKNFGLSSASFLNKVANRFGKRINQSVLSEIIGSGGPLASTSHTTNTTTTSVSVDSESVKSTSSSFAPTSNLLCHGTVATTPVSSNFDVDGNVNLTCSSSTFSDSSVNNPLMYCDNFVGNNNVDDEDTIGFSTFLNDEDFMMLEESCVENTAFMKELTRFLHEDENDVVDVTPVYERQDLFDEIDNYFG | interacted with both MYC3 and MYC4 | interacted with both MYC3 and MYC4
MYB113: MYB TF from subgroup 6 (protein, left off: NubG and FRB (from the vector pFRB), end not stated, kept) MGESPKGLRKGTWTTEEDILLRQCIDKYGEGKWHRVPLRTGLNRCRKSCRLRWLNYLKPSIKRGKLCSDEVDLVLRLHKLLGNRWSLIAGRLPGRTANDVKNYWNTHLSKKHDERCCKTKMINKNITSHPTSSAQKIDVLKPRPRSFSDKNSCNDVNILPKVDVVPLHLGLNNNYVCESSITCNKDEQKDKLININLLDGDNMWWESLLEADVLGPEATETAKGVTLPLDFEQIWARFDEETLELN | did not | did not
WT: MYB29 (AAs 120-222); MIM sequence - S TS KL LNK VA ARA SS - (protein, left off: NubG and FRB (from the vector pFRB), end not stated, kept) MSRKPCCVGEGLKKGAWTAEEDKKLISYIHEHGEGGWRDIPQKAGLKRCGKSCRLRWANYLKPDIKRGEFSYEEEQIIIMLHASRGNKWSVIARHLPKRTDNEIKNYWNTHLKKLLIDKGIDPVTHKPLAYDSNPDEQSQSGSISPKSLPPSSSKNVPEITSSDETPKYDASLSSKKRCFKRSSSTSKLLNKVAARASSMGTILGASIEGTLISSTPLSSCLNDDFSETSQFQMEEFDPFYQSSEHIIDHMKEDISINNSEYDFSQFLEQFSNNEGEEADNTGGGYNQDLLMSDVSSTSVDEDEMMQNITGWSNYLLDHSDFNYDTSQDYDDKNFI | interacted with both MYC3 and MYC4 | interacted with both MYC3 and MYC4
L190A: mutated MYB29 (AAs 120-222); MIM sequence - S TS KL ANK VA ARA SS - (protein, left off: NubG and FRB (from the vector pFRB), end not stated, kept) GIDPVTHKPLAYDSNPDEQSQSGSISPKSLPPSSSKNVPEITSSDETPKYDASLSSKKRCFKRSSSTSKLANKVAARASSMGTILGASIEGTLISSTPLSSCL | abolished the interaction | abolished the interaction
L190F: mutated MYB29 (AAs 120-222); MIM sequence - S TS KL FNK VA ARA SS - (protein, left off: NubG and FRB (from the vector pFRB), end not stated, kept) GIDPVTHKPLAYDSNPDEQSQSGSISPKSLPPSSSKNVPEITSSDETPKYDASLSSKKRCFKRSSSTSKLFNKVAARASSMGTILGASIEGTLISSTPLSSCL | weakly interacting | –
N191Q: mutated MYB29 (AAs 120-222); MIM sequence - S TS KL LQK VA ARA SS - (protein, left off: NubG and FRB (from the vector pFRB), end not stated, kept) GIDPVTHKPLAYDSNPDEQSQSGSISPKSLPPSSSKNVPEITSSDETPKYDASLSSKKRCFKRSSSTSKLLQKVAARASSMGTILGASIEGTLISSTPLSSCL | weakly interacting | –
N191L: mutated MYB29 (AAs 120-222); MIM sequence - S TS KL LLK VA ARA SS - (protein, left off: NubG and FRB (from the vector pFRB), end not stated, kept) GIDPVTHKPLAYDSNPDEQSQSGSISPKSLPPSSSKNVPEITSSDETPKYDASLSSKKRCFKRSSSTSKLLLKVAARASSMGTILGASIEGTLISSTPLSSCL | weakly interacting | –
